B1: GA-binding protein alpha chain, residues 172 to 250; numbered along this chain, Q06546 (parent)
chain: GYRKEQERLGIPYDPIQWSTDQVLHWVVWVMKEFSMTDIDLTTLNISGRELCSLNQEDFFQRVPRGEILWSHLELLRKY
B2: Ankyrin repeat and SOCS box protein 14, residues 532 to 572; numbered along this chain, A6NK59 (parent)
chain: RSLKHLCRLKIRKCMGRLHLRCPVFMSFLPLPNRLKAYVLY

Variants of: B1
Experiment: abundance fitness (aPCA) (normalised: wild type 0, dead -1); higher = more abundant; growth selection in yeast, the domain comes from the species named
Conditions: Homo sapiens

Abundance fitness: each site, then its substitutions
I68: T -0.065; P 0.023; H -0.095
H72: E 0.009; I -0.338; F -0.888; D -0.214; L -0.751; M -0.322; K -0.282; V -0.554; W -1.02; A -0.244; P -1; Q 0.019; Y -0.46; R -0.295; T -0.38; S -0.143
L75: V -0.193; M -0.042; F -0.136; W -0.104; K -0.122; G -0.132; Q -0.08; I 0.107; H 0.031; E 0.024; R -0.012; S 0.046; A -0.02; T 0.024; D -0.022; Y 0.01

Variants of: B2
Experiment: as above
Conditions: Homo sapiens

Abundance fitness of substitutions, site by site:
L9: E 0.308; I 0.08; Q 0.156; H -0.089; S 0.012; T 0.118; M 0.076; R -0.205; G -0.084; W -0.235; A 0.003; K -0.234; V -0.22; P -0.866; C 0.119; D 0.13
L6: S 0.155; V -0.183; R 0.154; K 0.027; H 0.054; Q 0.261; T -0.041; A 0.122; G -0.297; E 0.166; Y 0.083; W 0.394; C 0.204; P -0.493; D 0.192
C7: W 0.099; G -0.291; E -0.37; T -0.217; N -0.414; K -0.596; A 0.063; M 0.24; I 0.229; F 0.041; H -0.631; Q -0.529; P -0.577; R -0.871; V 0.304; S -0.357
K4: T 0.031; M -0.002; Q -0.425; Y 0.34; D -0.808; P -0.233; A 0.041; G -0.157; L 0.157; N -0.344; W 0.051; V -0.174; E -0.596; R -0.155; S -0.135
R1: K -0.107; E -0.033; F 0.243; G -0.042; S -0.39; V -0.1; C -0.113; N 0.093; A -0.414; T -0.372; M 0.386; W 0.045
K10: A 0.352; E -0.208; C -0.193; D -0.319
L3: E -0.142; G -0.686; C -0.517; W 0.011; H -0.878; K -0.575; N -0.529; V -0.547; Q -0.655; T -0.668; D -0.331; R -0.759; P -0.949; A -0.939; M -0.163
H5: A -0.137; C -0.043; N -0.105; P -0.6; E -0.018; L -0.184; R -0.285; G -0.37; M 0.057; D -0.293; S 0.069; Q -0.296; V -0.94
R8: Q -0.048; E -0.092; W 0.4; K 0.118; C 0.006; L 0.07; S -0.132; Y 0.329; G -0.004; V 0.057; A 0.104; P 0.076; T 0.005
S2: P -0.521; V -0.339; E -0.057; T -0.196; L 0.136; A -0.37; K -0.053; D 0.299; W -0.097; R -0.153; C -0.572; M 0.48; I 0.335

Reference: the Human Domainome abundance scans (Beltran et al. 2025)
